Target: BG505 UFO trimer (HIV-1 strain BG505, UniProt Q2N0S6, stabilised)
Experiment: BLI

B1: intermediate antibody IA5 of the J038 lineage (antibody, V domains shown)
VH: QLRLQESGPGLVKPSETLSLNCAVSGGSISDAYWSWIRQSPGRGLEWIGRISGRDGYTDYNPSLTSRVTISTDRSKTQVSLRLTSVTAADTAVYFCAREVAEDDYGYYQPYFDSWGQGVLVTVSS
VL: DIQMTQSPSSVSASVGDRVTITCRSSQGIDTDLAWYQHTPGKAPKLLIYHSCGLQSGVPSRFSGSGSGTDFTLTISSLQPEDFATYYCQQYKSLPLTFGGGTKVEVK
B1: binds.

Source: article doi:10.1101/2021.08.07.455519 (bioRxiv, 2021)
